Molecular target: T1, Abp1 SH3 (ABP1_YEAST), P15891
T1 chain: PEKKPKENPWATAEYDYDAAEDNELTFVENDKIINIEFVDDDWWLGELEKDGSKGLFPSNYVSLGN
Assay: SPOT array

Q: With VNIEDITEPKPDKP [YDR363W 93-106] as the binder, how does the normalised SPOT signal, Boehringer light units (BLU); mean over the file's lines of this peptide read?
A: 103

Q: VNNEIHYYYPPVKP [YDR321W 235-248] was tested. Which normalised SPOT signal, Boehringer light units (BLU); mean over the file's lines of this peptide did it give?
A: 116

Q: For VSSSSTIPVLPKP [YJL201W 369-381], which normalised SPOT signal, Boehringer light units (BLU); mean over the file's lines of this peptide is on record?
A: 77.3

Q: VILDARLPKNVKP [YDR107C 200-212] was tested. Which normalised SPOT signal, Boehringer light units (BLU); mean over the file's lines of this peptide did it give?
A: 99.6

Q: VSFDLKTPLRAKP [YMR092C 479-491] was tested. Which normalised SPOT signal, Boehringer light units (BLU); mean over the file's lines of this peptide did it give?
A: 461

Q: For VYYVSKAKLQPAKP [YAR007C 254-267], which normalised SPOT signal, Boehringer light units (BLU); mean over the file's lines of this peptide is on record?
A: 135

Q: How did the normalised SPOT signal, Boehringer light units (BLU); mean over the file's lines of this peptide turn out when VVDGNLAHETPVKP [YGR188C 429-442] was run?
A: 93

Q: VIRNFRFVGLPKKP [YPR155C 202-215] was tested. Which normalised SPOT signal, Boehringer light units (BLU); mean over the file's lines of this peptide did it give?
A: 145

Q: VVRTSKHWVLPPRP [YKL109W 62-75] was tested. Which normalised SPOT signal, Boehringer light units (BLU); mean over the file's lines of this peptide did it give?
A: 2600

Q: VFYENNSPEKEKP [YOR129C 465-477] was tested. Which normalised SPOT signal, Boehringer light units (BLU); mean over the file's lines of this peptide did it give?
A: 118

Q: VPKSTHDPSLAKP [YER167W 235-247] was tested. Which normalised SPOT signal, Boehringer light units (BLU); mean over the file's lines of this peptide did it give?
A: 82.5

Q: How did the normalised SPOT signal, Boehringer light units (BLU); mean over the file's lines of this peptide turn out when VGGNPDIPSLLKP [YHR080C 52-64] was run?
A: 87.4

Q: Which normalised SPOT signal, Boehringer light units (BLU); mean over the file's lines of this peptide does the source give for VLRLTDIEKTPQRP [YFL001W 315-328] here?
A: 122

Q: How did the normalised SPOT signal, Boehringer light units (BLU); mean over the file's lines of this peptide turn out when VRRKPHSPNKKKP [YDR223W 11-23] was run?
A: 98

Q: For VSSTGSKSGPPPRP [YNL138W 345-358], which normalised SPOT signal, Boehringer light units (BLU); mean over the file's lines of this peptide is on record?
A: 793

Q: How did the normalised SPOT signal, Boehringer light units (BLU); mean over the file's lines of this peptide turn out when VRDAYEKTLPPKRP [YKL032C 424-437] was run?
A: 416

Q: Which normalised SPOT signal, Boehringer light units (BLU); mean over the file's lines of this peptide does the source give for VFSGVTNQPSPIRP [YER129W 661-674] here?
A: 98.3

Q: For VSLHLVRKVAPTKP [YHR070W 474-487], which normalised SPOT signal, Boehringer light units (BLU); mean over the file's lines of this peptide is on record?
A: 5240

Q: Which normalised SPOT signal, Boehringer light units (BLU); mean over the file's lines of this peptide does the source give for VTDLIKFPLMDKP [YNR011C 599-611] here?
A: 88.1

Q: How did the normalised SPOT signal, Boehringer light units (BLU); mean over the file's lines of this peptide turn out when VSRFYQIPGTHRP [YBR235W 2-14] was run?
A: 326

Q: VLALNNLSQDPPKP [YJR033C 294-307] was tested. Which normalised SPOT signal, Boehringer light units (BLU); mean over the file's lines of this peptide did it give?
A: 105

Q: VIAVNDNPVVPRP [YOR324C 73-85] was tested. Which normalised SPOT signal, Boehringer light units (BLU); mean over the file's lines of this peptide did it give?
A: 140

Q: How did the normalised SPOT signal, Boehringer light units (BLU); mean over the file's lines of this peptide turn out when VFSKMAKKLLPYKP [YBR270C 205-218] was run?
A: 896

Q: With VTKRPATSTPPRKP [YJR043C 299-312] as the binder, how does the normalised SPOT signal, Boehringer light units (BLU); mean over the file's lines of this peptide read?
A: 812

Q: How did the normalised SPOT signal, Boehringer light units (BLU); mean over the file's lines of this peptide turn out when VKDYWEHPQAYKP [YMR250W 428-440] was run?
A: 12.6

Q: Which normalised SPOT signal, Boehringer light units (BLU); mean over the file's lines of this peptide does the source give for VITPSQLPNSVRP [YFL036W 250-262] here?
A: 214

Q: How did the normalised SPOT signal, Boehringer light units (BLU); mean over the file's lines of this peptide turn out when VIAILNPEVLPWRP [YIL150C 263-276] was run?
A: 78.9

Q: With WIRSTLNHIIPRRP [YML061C 4-17] as the binder, how does the normalised SPOT signal, Boehringer light units (BLU); mean over the file's lines of this peptide read?
A: 66.3

Q: How did the normalised SPOT signal, Boehringer light units (BLU); mean over the file's lines of this peptide turn out when VPLQIVSPQSNKP [YDL140C 507-519] was run?
A: 20.8

Q: With VLNTRESPDSLKP [YGR109W-B 421-433] as the binder, how does the normalised SPOT signal, Boehringer light units (BLU); mean over the file's lines of this peptide read?
A: 103

Q: With VLDVSHSKYIPLKP [YGL017W 311-324] as the binder, how does the normalised SPOT signal, Boehringer light units (BLU); mean over the file's lines of this peptide read?
A: 51.1

Q: With VLPVKIQPPLLRP [YPR175W 10-22] as the binder, how does the normalised SPOT signal, Boehringer light units (BLU); mean over the file's lines of this peptide read?
A: 149

Q: With VVSSKGTSTYPVKP [YJR105W 266-279] as the binder, how does the normalised SPOT signal, Boehringer light units (BLU); mean over the file's lines of this peptide read?
A: 112

Q: VIWQATTPVDVKP [YLR381W 153-165] was tested. Which normalised SPOT signal, Boehringer light units (BLU); mean over the file's lines of this peptide did it give?
A: 57.5

Q: With VLSTLYQPNGFRP [YHR194W 300-312] as the binder, how does the normalised SPOT signal, Boehringer light units (BLU); mean over the file's lines of this peptide read?
A: 54.5

Q: With VQMRMDPNQQPEKP [YDR258C 83-96] as the binder, how does the normalised SPOT signal, Boehringer light units (BLU); mean over the file's lines of this peptide read?
A: 247

Q: With VSSQPSLPRTLKP [YPL019C 812-824] as the binder, how does the normalised SPOT signal, Boehringer light units (BLU); mean over the file's lines of this peptide read?
A: 214

Q: Which normalised SPOT signal, Boehringer light units (BLU); mean over the file's lines of this peptide does the source give for VSSSEIESVEPLKP [YMR219W 1122-1135] here?
A: 56.1

Q: How did the normalised SPOT signal, Boehringer light units (BLU); mean over the file's lines of this peptide turn out when VGNYAYGAGHPMKP [YNL330C 29-42] was run?
A: 97.4

Q: How did the normalised SPOT signal, Boehringer light units (BLU); mean over the file's lines of this peptide turn out when VSHGDLNLINPMRP [YOL042W 270-283] was run?
A: 107

Q: With VIIEFSSPNIAKP [YDR341C 145-157] as the binder, how does the normalised SPOT signal, Boehringer light units (BLU); mean over the file's lines of this peptide read?
A: 38.1

Q: With VVVEFSSPNIAKP [YHR091C 181-193] as the binder, how does the normalised SPOT signal, Boehringer light units (BLU); mean over the file's lines of this peptide read?
A: 86.6

Q: VSHYHYGVKHPMKP [YGL194C 36-49] was tested. Which normalised SPOT signal, Boehringer light units (BLU); mean over the file's lines of this peptide did it give?
A: 39.9

Q: With VNPIGITPLGPKP [YMR251W 349-361] as the binder, how does the normalised SPOT signal, Boehringer light units (BLU); mean over the file's lines of this peptide read?
A: 62.5

Q: VVRIKGINKIPPKP [YGL076C 86-99] was tested. Which normalised SPOT signal, Boehringer light units (BLU); mean over the file's lines of this peptide did it give?
A: 615

Q: For VVYFSSIPPYMKP [YNR054C 115-127], which normalised SPOT signal, Boehringer light units (BLU); mean over the file's lines of this peptide is on record?
A: 93.8

Q: With VMIIFTIPETYKP [YHR048W 242-254] as the binder, how does the normalised SPOT signal, Boehringer light units (BLU); mean over the file's lines of this peptide read?
A: 96

Q: Which normalised SPOT signal, Boehringer light units (BLU); mean over the file's lines of this peptide does the source give for VVDIEVPMEYPFKP [YDR177W 53-66] here?
A: 40.3

Q: With VQVQTTTSILPLKP [YGR188C 415-428] as the binder, how does the normalised SPOT signal, Boehringer light units (BLU); mean over the file's lines of this peptide read?
A: 69.6

Q: How did the normalised SPOT signal, Boehringer light units (BLU); mean over the file's lines of this peptide turn out when WSRHFFLPRSKRP [YBL012C 87-99] was run?
A: 324

Q: How did the normalised SPOT signal, Boehringer light units (BLU); mean over the file's lines of this peptide turn out when VLVTEKFPEVMKP [YMR208W 259-271] was run?
A: 87.4

Q: With VPPTQSLPNGKKP [YER035W 35-47] as the binder, how does the normalised SPOT signal, Boehringer light units (BLU); mean over the file's lines of this peptide read?
A: 79.3

Q: With WDGVIPTPAIIKP [YDL140C 556-568] as the binder, how does the normalised SPOT signal, Boehringer light units (BLU); mean over the file's lines of this peptide read?
A: 78

Q: With VWYISYGEWGPRRP [YNL052W 72-85] as the binder, how does the normalised SPOT signal, Boehringer light units (BLU); mean over the file's lines of this peptide read?
A: 29.6

Q: How did the normalised SPOT signal, Boehringer light units (BLU); mean over the file's lines of this peptide turn out when VNYVDYYPLPDKP [YGL137W 187-199] was run?
A: 40.6

Q: For VFKDPEGDYKPIKP [YLR084C 1187-1200], which normalised SPOT signal, Boehringer light units (BLU); mean over the file's lines of this peptide is on record?
A: -0

Q: With VVVMSTSDERPFRP [YGL165C 142-155] as the binder, how does the normalised SPOT signal, Boehringer light units (BLU); mean over the file's lines of this peptide read?
A: 146

Q: Which normalised SPOT signal, Boehringer light units (BLU); mean over the file's lines of this peptide does the source give for VTDFNYTPSHQKP [YIL106W 99-111] here?
A: 79
